The values that follow are results of earlier work, collected in article PMC4317646.

The target in the data set is ADP-G-actin (Saccharomyces cerevisiae) (UniProt P60010).

Chain of C-Srv2 C-terminal half (P17555 253-526): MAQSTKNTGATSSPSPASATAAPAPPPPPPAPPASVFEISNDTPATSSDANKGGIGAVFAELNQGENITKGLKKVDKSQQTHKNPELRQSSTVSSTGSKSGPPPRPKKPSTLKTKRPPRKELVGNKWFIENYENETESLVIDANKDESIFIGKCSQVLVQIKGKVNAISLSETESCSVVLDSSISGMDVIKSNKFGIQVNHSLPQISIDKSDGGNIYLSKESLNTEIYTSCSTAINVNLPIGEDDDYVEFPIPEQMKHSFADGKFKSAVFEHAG

As for “C-Srv2 C-terminal half (from UniProt P17555)”, the Kd (as a rule, the concentration at which binding is half-saturated) was 18 nM.
